Source: the DeepSol protein solubility set

assay: soluble on expression in E. coli; label from the status in PepcDB or PDB records

| Sequence | soluble on expression in E. coli |
| --- | --- |
| MIKLIATIIVSTLILGSCSTMKDEIEKVPASQYKGQDFQPLAEKSAIAHAKKYREEYEKLGEQFFKDNFSLNVKATNVVGSGDGAEVYVHCDDHDIVFNASIPFDMESIHEEGSMRSNDNGDTMSMMVGTVLSGFEYRANKEKMDNLEKYLKDKEDKYHYTGFTDEAITKTQNIGYQNNYFYITTSSTKLRDYRKHFEPLIKESDDDFKKHMKQLKSKKDTYINTEITTTLFSTLDEYDEKIIRKNTLSMAKEMRKEPSIPHNFTFHLLFSNNKLKINDPNISNNQINEYRVFDHDGFKNLEHHHHHH | not soluble |
| MIKLSNITKVFQQGTRTIQALNNVSLHVPAGQIYGVIGASGAGKSTLIRCVNLLERPTEGSVQVGGQELTTLSESELTKARRQIGMIFQHFNLLSSRTVFGNVALPLELDNTPKEEIKRRVTELLDLVGLGDKHDSYPANLSGGQKQRVAIARALASNPKVLLCDEATSALDPATTRSILELLKDINRRLGLTILLITHEMDVVKRICDCVAVISNGELIEQDTVSEVFSHPKTPLAQKFIQSTLHLDIPEDYQARLKASPETDSVPMLRMEFTGQSVDAPLLSETARRFNVNNNIISAQMDYAGGVKFGIMLTEMHGTQEETQAAIAWLQDHHVKVEVLGYV | not soluble |
| MIKPALLDKKIEKPHSWEDIPHGEWICELIQSRLDEWCPKLFGYHMLKIGGLSAELDSRFCNIKHQVNLDNKNSLRNITAELPQLPFLEKSIDACVLAHQLDYSSDPHQLLREIDRVLIGDGYVILTGFNPMSAIGLASLFPWRKNNLPWSGRMFTPHRIKDWLSVLNFEVVYSDCFALAPLTRYRTMWTWFEGLGGDAVKPISGIYFIVARKRTYPLRPIKSAWKKKPKLAPISVAQTRQGKMKSD | not soluble |
| MILDKKSYDLLSYLLKLETPETVMAISHALNQSRRKVYYQLDKINQALPKGVDQIISYPRLGILLTADQKAACRLLLEEVTDYNYVMKSDERRRLSSIYIAVSTERVTIDKLMQINDVSRNTILNDLTELREELEDKQYKIQLHATKARGYYFGCHPMALIQYLYKLLVDVYQGGNTSFIDIFNRKLSEIQGLSVYFSKDILTYFHEYLFLSQASLGKTINTQDSQFMLQILPFMLLSYRNMRLDSETKSALKQEFHLIWKRKEYHIAQDLARELYHNFKLHLDDIEVSMVAMLMLSFRKDQDHHVESQDYDDMRATISHFIDQLESRYQLHFTHKQDLLKRLTTHCKALVYRKAYGIFLVNPLTDHVKEKYEELFAMTQSCATILEQDWTISLTDDDIAYLTIHLGGELRHNNTEQEKTKLVIVSDDGIGIQKLLFKQCQRYLANGQIEAVFTTEQYQSVYDLLAVDMIVATTDTLKTKIPMLIVNPILSDDDIIKLIRFSKQGRLSEHSRFSTELTKAIEAVVKDESDRYALVSKIEKLIHRELL | not soluble |
| MILDRERTTGSLFERMEASSARNRQGGSIHSLRQSIRQNLRNILNTRSGSCRGAPELGIDEPEGAENFRESMSRAIEQCIERYEPRISHAEVQAVVSSASSPLDMTFHITAWVTFNETHEVLEFDMAPNGSQHYRVD | soluble |
| MILHPRPSPIAAAMYQLRDIGVDAIILHGPSGCCFRTARLLEIDGIRVFTSAMGENDFIFGAMDKLRDVIAEVLEYLKKETPKSEKYKIGIVGTCASMIIGEDLESLIDDFDDIIIPVDIHSGLVDNTVGAIRAMDGALNAGLIDYSEYERQKKMLEHHHHHH | soluble |
| MILLFGGTTEGRQAAALCDRLGLPFIYSTKTRVEPFATACGEFRHGALDEAALSELVSSSGVRLVIDAAHPFAARLHRSLFEVCQHLAVRLIRFDRPSVDVPDFEGLHSVADFTEALALLDRLNPAKLLALTGVQSIAPLRPWWEQHDMLLRILPTQASMELARREGIPEAQLLPMNPDSSDEALEKLVRKHGVDCLLAKESGESGFFSSKLRVAERCAIPLIVIRRPPAPAYDVVATSVEELEALLPD | soluble |
| MILRTSEETISTVQEKQQNISPLVRERGPQRVAAHITGTRGRSNTLSSPNSKNEKALGRKINSWESSRSGHSFLSNLHLRNGELVIHEKGFYYIYSQTYFRFQEEIKENTKNDKQMVQYIYKYTSYPAPILLMKSARNSCWSKDAEYGLYSIYQGGIFELKENDRIFVSVTNEHLIDMDHEASFFGAFLVG | soluble |
| MILTPIRRYGAMILMLLTLVFSSEVLAKTHTTTASQKSHLTKASNKQVSSKQEYSRNSAKSSSLPDLRKYPSGTSRKKAFLRTVMPYITSQNAAITAERNWLISKQYQGQWSPAERARLKDIAKRYKVKWSGNTRKIPWNTLLERVDIIPTSMVATMAAAESGWGTSKLARNNNNLFGMKCMKGRCTNAPGKVKGYSQFSSVKESVSAYVTNLNTHPAYSSFRKSRAQLRKADQEVTATAMIHKLKGYSTKGKSYNNYLFAMYQDNQRLIAAHM | not soluble |
| MIMICPGCSCLCDDIYIKDGKVFNACRRGEEIFAKYNENRAVARVDGKEVDVDTAIEKAIEILKDAKNPAIYGLDTTVVEAQSLAIEVAEKLNGYIDDNSSFCLGELVEAVLKGEIPTTTLDEVRDNAYVLVYWGTNPYHSLSRHMSKYTYYPRGKRRPRGYDEDRYLVVVDVRKSETAKLAKKNAKFIQVESDAELVDSFMKVVDGKAAKYAKEAGAIITEMKKADFNVIFGGLGLKYGLKDLNMFKEMVKKLNEVAKVYFIPAGFHGNMRGFNETLFEKVGYVNKYSFRDGKSGEEFAFTELLKNEKIDAALIVGTDPVYSLPFDVSSKLGKVKTIVIDPRMSFTARIADVVIPSAISGIEAGGTMVRSDGVRVMLEPLEEKEVNDVYILQRIKEGL | not soluble |
| MIMLKEYSLKALQTAINQAMKLDEQMPQKLQKLDGKTLEMVITPLNVNFYIRFKGSEMQLLHRIDGRPDTIIHSNPIGLIRLSLLPTSKARSLFNDKIRISGDIELGQSVKKLFDEIDIDWEGHLAHFTGDVVAHQIGSFVRKGLEFKNQFSTSMQQNITEFLQEELRICPSRNELEDFFAEVDELVLSVDRLQAHINNLMSDDEGN | not soluble |
| MINLQDVSKVYKSKHGDVNAVQNVSLSIKKGEIFGIIGYSGAGKSSLIRLLNGLEKPTSGTVEVAGTKINEVNGRGLRKARHEISMIFQHFNLLWSRTVRDNIMFPLEIAGVKKSERIKRANELIKLVGLEGKEKSYPSQLSGGQKQRVGIARALANNPKVLLCDEATSALDPQTTDSILDLLSDINERLGLTIVLITHEMHVIRKICNRVAVMENGKVVEEGEVLDVFKNPKEQMTKRFVQQVTEPEETKETLQHLLDDTASGKMVQLTFVGESAEQPLITEMIRNFNVSVNILQGKISQTKDGAYGSLFIHIDGDEEEVQNVIRFINDKQVKAEVITNV | not soluble |
| MINNSNDIGFIQDIAGLDKLRQKAVNGDENAGQSALTAAARQFESIFTSMMLKSMRDANSDFKSDLMSSQNEDLYRQMLDEQMASEFSSSGSLGLADMIVAQLSTGQTASEQKGEDGFQEAMRRVEHARKTASERSNEDLVAAVYPLRKTQAVQSTQFDSRHSFVTKLKPYADKAARMLGVDSSLLIAQAALETGWGQKMVKNARGNSNNLFNIKADRSWQGDKVATQTLEYHNNVPVVEKAAFRSYASFDESFNDYVRFLENNPRYTNALDHGGNSERFIHGIHRAGYATDPQYADKVLRVKAQIDQMNLL | not soluble |
| MIPISVLVTNAGTVSFHIKGEYNRDRPSKFSDVFRPVVTWNLTRKCNLKCLHCYINASPEGEDGLTTEEALGLIDEMAEMKIPLIIMSGGEPLMRRDFFELASYARSKGIKLALSTNGTLISESVAKRLKELDFSYVGISLDSYDPEFHDKFRGLNGAFNMTVKGIGNAINVGLNVGLRFTITAKNIHQVDEYMKLALKLGVKRITFYHLSASGRGRELREWMYTLEEYVSFINKMIDYAIKLSGKIEIETTLGQFDGVYIAKKLARNEEELEKYLKFVENSGGCGRKMISIYPNGDVYPCQFIDFYKLGNVREKPLKEIIKNIPDLFINTDKYLKGRYCDKCEYKSACKGGDRARAYYWNEDIYGDDPLCPLKTLHI | not soluble |
| MIPLKYLQAYPASLQDQVRQLIAENRLGEYLERRYPGRHDVQSDKALYAYTMNLKQEHLRNAPGLDKVLYDNKLDVVQRALGLHTAISRVQGGKLKAKKEIRVASLFKDAAPEFLRMIVVHELAHLKESEHNKAFYQLCQYMLPDYHQLEFDLRVYLTWKSLAAALEHHHHHH | not soluble |
| MIPTERRQIILDMVAEKGIVSIAELTERMHVSHMTIRRDLQKLEQQGAVIQVSGGVQSSTRVAHEPSHQIKTELATPQKAAIGKLAASLVQPESCIYLDAGTTTLAIARQLVTMNKLTVVTNDFVIADYLMDNSNCTIIHTGGAVCRENRSCVGEAAATLLRGLMIDQAFISASSWSVRGISTPAEDKVTVKRAVASASRQKILVCDATKYGQVATWLALPLAEFNQIVTDDGLPESAIRALAKVDISLLMAKQ | not soluble |
| MIPVILSGGSGSRLWPLSRKQYPKQFLALTGDDTLFQQTIKRLAFDGMQAPLLVCNKEHRFIVQEQLEAQNLASQAILLEPFGRNTAPAVAIAAMKLVAEGRDELLLILPADHVIEDQRAFQQALALATNAAEKGEMVLFGIPASRPETGYGYIRASADAQLPEGVSRVQSFVEKPDEARAREFVAAGGYYWNSGMFLFRASRYLEELKKHDADIYDTCLLALERSQHDGDLVNIDAATFECCPDNSIDYAVMEKTSRACVVPLSAGWNDVGSWSSIWDVHAKDANGNVTKGDVLVHDSHNCLVHGNGKLVSVIGLEDIVVVETKDAMMIAHKDRVQDVKHVVKDLDAQGRSETQNHCEVYRPWGSYDSVDMGGRFQVKHITVKPGARLSLQMHHHRAEHWIVVSGTAQVTCDDKTFLLTENQSTYIPIASVHRLANPGKIPLEIIEVQSGSYLGEDDIERLEDVYGRTAEPALQVVAGSR | not soluble |
| MIPYRQLVRMSHLAARFVGGADVHVVDPLVDLRNVFEQTDQLKIALECRNLTVDVEKVKNEYDEWFETYQKWKQADKESISQLKKELRAKKDGLLNALALPNLVHHAGKKQTPLLKPSKHAQYLAQQGLMRIDKQNHVVHLVGYPVVVQKMIREQLVDLFPGCQPISPSYFARAAILEALNIDQSTCIPFTDDSSHFPLTYLVGNSLPAITSPFLKTSFGEKNEWPISVQCTGASYTEKKNQVDLGNARQRMKHCALWMSKSAEELEGIINDANVRVGAYLDEGLDLEVKVREVRGSELKNYESQAFVVENRGLSLSRISRIGDYVSKRLNIQYSGSPATEKSEKSDGFVQMVYVETDIDRILARLVDDLIEGKEPPKYIRDAIKKSF | not soluble |
| MIQCEECLCWQHSVCMGLLEESIPEQYICYICRDPPGQRWSAKYRYDKEWLNNGRMCGLSFFKENYSHLNAKKIVSTHHLLADVYGVTEVLHGLQLKIGILKNKHHPDLHLWACSGKRKDQDQIIAGVEKKIAQDTVNREEKKYVQNHKEPPRLPLKMEGTYITSEHSYQKPQSFGQDCKSLADPGSSDDDDVSSLEEEQEFHMRSKNSLQYSAKEHGMPEKNPAEGNTVFVYNDKKGTEDPGDSHLQWQLNLLTHIENVQNEVTSRMDLIEKEVDVLESWLDFTGELEPPDPLARLPQLKRHIKQLLIDMGKVQQIATLCSV | soluble |
